Test results: publication PMC9023278

Target: T1, EnrR (crystal) (Edwardsiella piscicida EIB202, UniProt A0AAQ3C0I8 1-90)
T1 sequence: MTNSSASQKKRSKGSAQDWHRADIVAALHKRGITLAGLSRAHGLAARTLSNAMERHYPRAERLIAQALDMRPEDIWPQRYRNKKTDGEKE
Assay: X-ray crystallography

B1: DNA1 (dsDNA)
DNA 1: CGAAATATCTATAGATATTTCG
DNA 2: CGAAATATCTATAGATATTTCG
**Q.** Does B1 bind?
**A.** Result: binds
